In paper PMC9352930, “Structure-Guided Engineering of a Complement Component C3-Binding Nanobody Improves Specificity and Adds Cofactor Activity” (Frontiers in Immunology, 2022):
One block for each binder: values may come before it.

Experiments:
Details in all cases: both partners purified
[1] = molecular target: T1, C3b (proteolytic fragment of complement component C3) (human, UniProt P01024); assay: SPR; biotinylated C-terminally avi-tagged nanobody on streptavidin (CM500M chip); native C3, C3b and C3MA injected at 0.4-200 nM; 20 mM HEPES pH 7.5, 150 mM NaCl, 0.05% Tween 20, 25°C; 1:1 model; KD for native C3 called apparent
T1 construct: complement component C3, human, beta chain; complement component C3, human, alpha' chain (alpha chain after release of C3a); also called human C3b; source: generated from native plasma C3 by trypsin cleavage, purified

[2] = molecular target: T1, C3b (proteolytic fragment of complement …); assay: BLI; single concentration: nanobody variant held on anti-penta his (His1K) biosensors, transferred into 50 nM C3 or C3b for 180 s; 20 mM HEPES pH 7.5, 150 mM NaCl, 30°C
iC3b = molecular target: T2, iC3b (human); assay: BLI; kinetics: EWE, EWEµH or EWEnH held on anti-penta his (His1K) biosensors, dilution series of C3b or iC3b; 20 mM HEPES pH 7.5, 150 mM NaCl, 30°C; 1:1 model
T2 construct: complement component C3, human, beta chain; it says only that FI degrades C3b to iC3b; copies: + +
T2 sequence (chain, as listed by the source, chain 1 of 3): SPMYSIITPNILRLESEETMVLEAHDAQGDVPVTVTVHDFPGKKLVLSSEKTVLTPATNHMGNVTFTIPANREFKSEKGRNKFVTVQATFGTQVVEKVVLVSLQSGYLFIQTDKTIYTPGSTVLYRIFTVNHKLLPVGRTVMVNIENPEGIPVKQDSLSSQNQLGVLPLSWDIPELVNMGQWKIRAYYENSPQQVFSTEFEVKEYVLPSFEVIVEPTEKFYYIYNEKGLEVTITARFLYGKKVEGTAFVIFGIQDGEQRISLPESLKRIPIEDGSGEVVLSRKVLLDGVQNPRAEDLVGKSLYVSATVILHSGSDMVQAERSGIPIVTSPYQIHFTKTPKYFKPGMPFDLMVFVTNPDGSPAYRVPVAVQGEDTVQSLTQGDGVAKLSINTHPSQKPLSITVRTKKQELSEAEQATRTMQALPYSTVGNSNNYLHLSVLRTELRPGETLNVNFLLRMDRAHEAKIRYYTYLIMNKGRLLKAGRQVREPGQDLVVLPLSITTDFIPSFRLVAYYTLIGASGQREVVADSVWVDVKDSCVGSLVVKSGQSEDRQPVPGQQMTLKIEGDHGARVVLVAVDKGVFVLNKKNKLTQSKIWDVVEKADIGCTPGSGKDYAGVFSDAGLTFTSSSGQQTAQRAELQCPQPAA
T2 sequence (chain, as listed by the source, chain 2 of 3): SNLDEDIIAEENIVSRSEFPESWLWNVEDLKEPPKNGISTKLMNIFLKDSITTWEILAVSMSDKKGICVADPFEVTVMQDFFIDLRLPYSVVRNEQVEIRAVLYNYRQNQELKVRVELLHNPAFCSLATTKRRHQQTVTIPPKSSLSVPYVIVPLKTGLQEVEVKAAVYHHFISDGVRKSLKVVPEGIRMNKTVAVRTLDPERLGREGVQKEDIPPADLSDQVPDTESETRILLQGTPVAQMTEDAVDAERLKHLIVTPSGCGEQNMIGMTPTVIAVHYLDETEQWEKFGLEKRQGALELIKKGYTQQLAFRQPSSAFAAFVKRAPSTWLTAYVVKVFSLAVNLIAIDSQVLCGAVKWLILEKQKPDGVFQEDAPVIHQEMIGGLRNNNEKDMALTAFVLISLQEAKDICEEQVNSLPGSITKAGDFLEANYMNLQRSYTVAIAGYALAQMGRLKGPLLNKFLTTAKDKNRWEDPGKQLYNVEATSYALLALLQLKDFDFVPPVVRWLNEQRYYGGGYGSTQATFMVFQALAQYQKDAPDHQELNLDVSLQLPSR
T2 sequence (chain, as listed by the source, chain 3 of 3): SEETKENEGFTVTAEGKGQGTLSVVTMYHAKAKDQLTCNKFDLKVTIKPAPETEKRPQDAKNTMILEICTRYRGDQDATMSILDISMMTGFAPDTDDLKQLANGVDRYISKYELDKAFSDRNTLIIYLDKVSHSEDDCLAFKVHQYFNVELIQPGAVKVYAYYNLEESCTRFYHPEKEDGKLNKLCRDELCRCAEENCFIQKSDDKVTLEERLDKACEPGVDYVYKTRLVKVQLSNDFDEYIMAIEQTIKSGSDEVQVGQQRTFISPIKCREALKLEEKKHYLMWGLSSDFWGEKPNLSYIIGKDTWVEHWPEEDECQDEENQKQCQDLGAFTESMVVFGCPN

[3] = molecular target: T1, C3b (proteolytic fragment of complement …); assay: as above
[4] = molecular target: T1, C3b (proteolytic fragment of complement …); assay: SEC; C3 or C3b mixed with a two-fold molar excess of nanobody, 5 min on ice; Superdex 200 increase, 20 mM HEPES pH 7.5, 150 mM NaCl; peak fractions on SDS-PAGE

B2: hC3Nb1 Q1N (VHH)
VHH: NVQLVETGGGLVQAGGSLRLSCAASGSIFSLNAMGWFRQAPGKEREFVATINRSGGRTYYADSVKGRFTISRDNGKNMVYLQMHSLKPEDTAIYYCAAGTGWSPQTDNEYNYWGQGTQVTVSS
notes: hC3Nb1 nanobody with the N-terminal glutamine mutated to asparagine; parent as the nanobody piece of m6; The printed calculated mass (14182.7) fits a protein without the N-terminal methionine (my reckoning against 14327.9 for m6); source: expressed in bacteria, purified
binding result [2]: binds

B4: hC3Nb1 nanobody, mammalian expressed (VHH)
VHH: QVQLVETGGGLVQAGGSLRLSCAASGSIFSLNAMGWFRQAPGKEREFVATINRSGGRTYYADSVKGRFTISRDNGKNMVYLQMHSLKPEDTAIYYCAAGTGWSPQTDNEYNYWGQGTQVTVSS
notes: hC3Nb1 nanobody without the N-terminal methionine; in the PDB entries 6EHG and 6RU5; pcDNA 3.1 vector; The calculated mass differs from that of the bacterial construct by more than a methionine, so tag or ends may differ; source: HEK293, transiently transfected, purified from conditioned media (HisTrap excel, ion exchange, SEC)
binding result [2]: binds

B5: hC3Nb1 nanobody, bacterially expressed (VHH)
VHH: QVQLVETGGGLVQAGGSLRLSCAASGSIFSLNAMGWFRQAPGKEREFVATINRSGGRTYYADSVKGRFTISRDNGKNMVYLQMHSLKPEDTAIYYCAAGTGWSPQTDNEYNYWGQGTQVTVSS
notes: N-terminal methionine, retained according to mass spectrometry; hC3Nb1 nanobody; in the PDB entries of its complexes with C3b (6EHG) and C3 (6RU5); pET-22b(+) plasmid; Held on anti-penta-His sensors in BLI; also called parental hC3Nb1; hC3bNb1; source: LOBSTR cells (bacteria), purified (HisTrap, Source 15S, SEC)
binding result [4]: binds

B6: hC3Nb1 ΔQ1 (VHH)
VHH: VQLVETGGGLVQAGGSLRLSCAASGSIFSLNAMGWFRQAPGKEREFVATINRSGGRTYYADSVKGRFTISRDNGKNMVYLQMHSLKPEDTAIYYCAAGTGWSPQTDNEYNYWGQGTQVTVSS
notes: hC3Nb1 nanobody with the N-terminal glutamine deleted; parent as the nanobody piece of m6; The printed calculated mass (14068.6) fits a protein without the N-terminal methionine (my reckoning against 14327.9 for m6); source: expressed in bacteria, purified
binding result [2]: binds

Further lines, results first:

Kd [1]: 2.2 nM
B1: avi-tagged, biotinylated EWE nanobody (VHH)
VHH: QVQLVETGGGLVQAGGSLRLSCAASGSIFSINAMGWFRQAPGKEREFVATINRSGGRTYYADSVKGRFTISRDNGKNMVYLQMHSLKPEDTAIYYCAAGTGWSPQTDNEYNYWGQGTQVTVSS
notes: hC3Nb1 nanobody; as the nanobody piece of m6; also called avi-tagged version of EWE; source: purified similarly to EWE (bacteria; HisTrap, Source 15S, SEC) and biotinylated; not shown: Avi tag, C-terminal, kept

Kd (iC3b): 3.6 nM
Kd [3]: 3 nM
B3: EWE-hC3Nb1 nanobody, bacterially expressed (VHH)
VHH: QVQLVETGGGLVQAGGSLRLSCAASGSIFSINAMGWFRQAPGKEREFVATINRSGGRTYYADSVKGRFTISRDNGKNMVYLQMHSLKPEDTAIYYCAAGTGWSPQTDNEYNYWGQGTQVTVSS
notes: hC3Nb1 nanobody, beginning with its N-terminal glutamine (Gln4 of EWE); as the nanobody piece of m6; also called EWE nanobody; source: LOBSTR cells (bacteria), purified (HisTrap, Source 15S, SEC); not shown: 6xHis, C-terminal, kept
